US20150297742A1

Key:
[1] = biological target: epidermal growth factor receptor (EGFR) (human) (UniProt P00533); assay: 125I-labelled conjugate on EGFR-positive A431 cells, 37 C, gamma counting (membrane bound plus internalized)
[2] = biological target: epidermal growth factor receptor (EGFR) (human) (UniProt P00533); assay: 125I-labelled conjugate on A431 cells, against unmodified matuzumab

Substance	% of the applied dose bound (% of applied dose per 10^6 cells) [1]	fold of the binding percentage of the unmodified mAb [2]
mAb-dSynB1 (matuzumab conjugated to dendritic tetravalent SynB1) (antibody)	47	–
mAb-dR9 (matuzumab conjugated to dendritic tetravalent R9) (antibody)	92	4.2 fold
mAb-dMTS (matuzumab conjugated to dendritic tetravalent MTS) (antibody)	–	3 fold
mAb-dPenetratin (matuzumab conjugated to dendritic tetravalent penetratin) (antibody)	68	3 fold
mAb-dTAT (matuzumab conjugated to dendritic tetravalent TAT (47-60)) (antibody)	–	3 fold
